The target of this test is human NRP1 protein (human, UniProt O14786 22-644). Put plainly: ELISA. In general terms: An ELISA detects its analyte on a solid surface through an enzyme-linked reagent.
Sequence of human NRP1 protein (O14786 other isoform, or with tags, fused parts or gaps): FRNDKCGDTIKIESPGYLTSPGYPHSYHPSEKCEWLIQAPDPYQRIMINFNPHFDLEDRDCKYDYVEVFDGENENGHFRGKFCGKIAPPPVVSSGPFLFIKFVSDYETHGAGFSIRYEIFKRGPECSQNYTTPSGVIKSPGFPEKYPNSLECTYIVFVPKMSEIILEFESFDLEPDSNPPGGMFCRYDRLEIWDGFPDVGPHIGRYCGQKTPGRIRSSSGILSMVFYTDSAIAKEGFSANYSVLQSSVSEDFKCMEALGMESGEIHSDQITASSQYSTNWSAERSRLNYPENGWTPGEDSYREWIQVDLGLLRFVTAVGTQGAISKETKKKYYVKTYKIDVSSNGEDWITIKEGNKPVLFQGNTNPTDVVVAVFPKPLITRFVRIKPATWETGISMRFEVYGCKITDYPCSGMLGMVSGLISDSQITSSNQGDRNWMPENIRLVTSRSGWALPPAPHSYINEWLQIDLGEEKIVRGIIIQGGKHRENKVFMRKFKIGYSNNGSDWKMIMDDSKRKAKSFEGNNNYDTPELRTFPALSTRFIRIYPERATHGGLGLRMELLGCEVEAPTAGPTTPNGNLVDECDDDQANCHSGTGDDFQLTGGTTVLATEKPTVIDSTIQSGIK

B1: 1A03 anti-NRP1 IgG (antibody, V domains shown)
VH: EVQLLESGGGLVQPGGSLRLSCAASGFTFSSYYMSWVRQAPGKGLEWVSAISPGSSNKYYADSVQGRFTISRDNSKNTLYLQMNSLRAEDTAVYYCARRKKSFDYWGQGTLVTVSS
VL: QSVLTQPPSASGTPGQRVTISCSGPSSNIGNNDVSWYQQLPGTAPKLLIYSDNNRPSGVPDRFSGSKSGTSASLAISGLRSEDEADYYCGAWVASLSAYVFGGGTKLTVL
In general, Kd refers to a measure of binding affinity in units of concentration. Read a high Kd as weaker binding. As to B1, the affinity, expressed as Kd, was 1.11 µM.

B2: IRCR-101 (3H10) anti-NRP1 IgG (antibody, V domains shown)
VH: EVQLLESGGGLVQPGGSLRLSCAASGFTFSSYYMSWVRQAPGKGLEWVSAISPGSSNKYYADSVKGRFTISRDNSKNTLYLQMNSLRAEDTAVYYCARRKYMFDYWGQGTLVTVSS
VL: QSVLTQPPSASGTPGQRVTISCTGSSSNIGNNDVYWYQQLPGTAPKLLIYSDSNRPSGVPDRFSGSKSGTSASLAISGLRSEDEADYYCASWDSSLSGYVFGGGTKLTVL
B2 gave a dissociation constant Kd of 0.426 µM.

For the origin of these results see US20170291948A1 (published 2017).
